Results reported in the MegaScale stability set (Tsuboyama et al. 2023).

B1: 1ZHC (parent)
chain: HEFRDEISVLKANNPHFDKIFEKHNQLDDDIKTAEQQNASDAEVSHMKKQKLKLKDEIHSMIIEYREK
B2: EEHEE_rd3_1049 (parent)
chain: TTVKLGDIKVTFDNPEKAKKYAQKLAKIYQLTVHVHGDTIHVK

Variants of: B1
Assay: folding stability dG (cDNA display proteolysis); higher = more stable
Conditions: PBS, room temperature

Folding stability dG [kcal/mol] of substitutions, site by site:
D28: K 0.414, A 1.37, M 1.21, E 1.18
I62: W -0.3, C -0.713
K11: A 0.308, D -0.966
S45: E 1.07, M 1.01
D18: T 1.35, I 1.43, W 1.77, S 1.56, F 2.03, R 2.46, M 2.03, N 1.74
A39: R 1.33, M 0.936, T 0.09
I20: A -0.159
E6: F 1.4, C 1.95, S 0.271, Y 1.42, R 0.234
M47: V -0.869, Y -0.412, C -0.078, A -0.981
H1: E 1.23, D 1.28, F 1.05
I63: Q 1.12, D -0.032

Variants of: B2
Assay: as above
Conditions: PBS, room temperature

Folding stability dG [kcal/mol]: each site, then its substitutions
I40: S 0.541, H 0.576, F 1.6, K 0.443, T 0.449, L 1.66, V 1.3, D 0.287, W 1.28, R 0.214, Q 0.438, C 0.854, N 0.239, G 0.535, M 1.16, Y 1.66, P 0.463, E 0.224, A 0.282
K43: N 1.58, P 0.706, T 2.48, E 1.91, F 2.85, I 2.62, D 1.61, A 2.07, H 2.19, L 2.57, Y 2.64, G 2.51, Q 2.16, W 2.48, V 2.68, M 2.56, S 2.17, R 2.36, C 3.65
G37: Q 1.27, P 0.698, T 0.847, L 1.31, I 1.04, K 1.24, W 1.25, N 1.3, M 1.22, Y 1.24, E 1.3, R 1.13, F 1.38, H 1.05, V 1.05, S 1, D 1.22
V42: G 0.341, C 1.79, M 1.7, K 0.386, F 1.95, R 0.284, S 0.478, T 0.607, Q 0.328, L 2.83, I 2.02, P 0.257, H 0.289, W 0.918, N 0.487, A 0.602, E 0.303, Y 0.874, D 0.236
D38: P 1.42, C 2.12, K 1.85, N 2.47, E 1.47, V 1.57, T 2, Q 1.85, H 1.95, M 1.97, F 1.7, A 1.94, L 1.83, R 1.86, Y 1.47, G 1.6, W 1.76, I 1.6, S 2.16
T39: F 1.77, L 1.81, R 0.835, I 2.27, E 1.82, V 2.23, N 1.06, D 0.923, W 1.55, M 1.96, K 0.943, A 1.13, G 0.726, C 2.26, P 0.457, S 1.24, Y 1.71, Q 1.36, H 1.58
H41: K 1.1, L 2.17, T 2.23, M 1.86, P 0.283, A 1.26, V 2.44, Y 2.6, E 2.44, D 1.49, Q 1.55, N 1.32, R 1.25, C 2.41, S 1.65, W 2.31, I 2.58, G 0.476, F 2.37
